Experimental data as given in paper PMC9813255 (2023).

Assays:
Test in all cases: SPR
GST-Htt-20Q = target: T1, GST-Htt-20Q
T1 chain: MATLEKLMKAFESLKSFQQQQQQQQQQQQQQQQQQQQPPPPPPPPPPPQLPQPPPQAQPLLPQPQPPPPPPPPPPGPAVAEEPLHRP

GST-Atxn1-33Q = target: T2, GST-Atxn1-33Q (UniProt P54253 1-815)
T2 chain: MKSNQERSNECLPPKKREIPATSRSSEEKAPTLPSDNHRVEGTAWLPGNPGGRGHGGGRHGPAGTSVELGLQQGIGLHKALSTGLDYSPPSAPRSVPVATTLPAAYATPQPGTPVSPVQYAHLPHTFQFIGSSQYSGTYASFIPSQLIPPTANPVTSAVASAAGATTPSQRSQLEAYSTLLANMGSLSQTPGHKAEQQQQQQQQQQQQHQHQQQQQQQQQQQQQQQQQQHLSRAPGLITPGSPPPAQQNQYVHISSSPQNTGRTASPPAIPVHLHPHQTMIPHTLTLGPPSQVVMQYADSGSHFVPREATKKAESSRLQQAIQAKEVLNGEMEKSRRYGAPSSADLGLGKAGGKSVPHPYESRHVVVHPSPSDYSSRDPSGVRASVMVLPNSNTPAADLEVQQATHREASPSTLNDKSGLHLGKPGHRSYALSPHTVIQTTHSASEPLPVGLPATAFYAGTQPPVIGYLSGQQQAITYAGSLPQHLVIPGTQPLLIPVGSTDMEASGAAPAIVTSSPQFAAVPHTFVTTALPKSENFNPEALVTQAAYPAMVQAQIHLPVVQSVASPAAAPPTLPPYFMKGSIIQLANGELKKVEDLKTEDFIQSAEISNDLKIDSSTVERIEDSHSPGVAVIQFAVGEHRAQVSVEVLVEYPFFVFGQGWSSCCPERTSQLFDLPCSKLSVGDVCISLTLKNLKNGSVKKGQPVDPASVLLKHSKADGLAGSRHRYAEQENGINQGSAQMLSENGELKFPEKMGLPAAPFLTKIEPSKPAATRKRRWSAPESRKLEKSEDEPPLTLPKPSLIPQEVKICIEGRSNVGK

GST-Atxn1-86Q = target: T3, GST-Atxn1-86Q (UniProt P54253 1-815)
T3 chain: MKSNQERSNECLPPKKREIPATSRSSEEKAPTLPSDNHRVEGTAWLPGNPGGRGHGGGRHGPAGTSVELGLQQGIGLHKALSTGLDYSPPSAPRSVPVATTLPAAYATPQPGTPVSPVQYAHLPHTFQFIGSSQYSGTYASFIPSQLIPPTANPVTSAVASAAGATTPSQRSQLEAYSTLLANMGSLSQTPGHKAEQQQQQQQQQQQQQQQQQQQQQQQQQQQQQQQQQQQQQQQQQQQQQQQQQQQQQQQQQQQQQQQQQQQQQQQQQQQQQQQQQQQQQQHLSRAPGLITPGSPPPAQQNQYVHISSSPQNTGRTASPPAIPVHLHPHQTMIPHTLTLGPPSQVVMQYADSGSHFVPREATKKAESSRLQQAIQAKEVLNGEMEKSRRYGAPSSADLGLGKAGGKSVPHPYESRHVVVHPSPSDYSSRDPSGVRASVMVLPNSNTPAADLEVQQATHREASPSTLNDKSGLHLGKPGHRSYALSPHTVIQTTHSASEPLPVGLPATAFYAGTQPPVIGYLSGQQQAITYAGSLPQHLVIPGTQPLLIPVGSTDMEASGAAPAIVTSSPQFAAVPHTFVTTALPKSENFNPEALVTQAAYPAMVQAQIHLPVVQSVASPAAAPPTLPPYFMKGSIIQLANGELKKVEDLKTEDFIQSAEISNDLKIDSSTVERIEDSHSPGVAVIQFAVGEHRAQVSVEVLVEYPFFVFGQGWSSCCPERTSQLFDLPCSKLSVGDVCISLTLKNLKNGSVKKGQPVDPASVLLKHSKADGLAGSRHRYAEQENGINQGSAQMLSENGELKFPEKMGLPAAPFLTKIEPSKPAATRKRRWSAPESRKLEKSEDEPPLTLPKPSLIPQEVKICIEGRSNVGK

Binder | Kd (GST-Htt-20Q) | Kd (GST-Atxn1-33Q) | Kd (GST-Atxn1-86Q)
PQBP5-Δ1 (protein, Delta number assigned from the order of the constructs in the methods; initiator Met from the primer and tag omitted. Exon 1 ends at ...LHRP, which agrees with the printed Htt reverse primer. The entry carries 21Q (18-38); one Q is removed to give the 20Q of the assayed protein name. The plasmid is called 17Q, so the repeat count is ambiguous. GST omitted.) TYQLSLKFERCLDSEVVTFEILSDDYSKIVFLHNDRYIEFHSQSGFYYKTRIPKFGRDFSYHYPSCDLYFVGASSEVYRLNLEQGRYLNPLQTDAAENNVCDINSVHGLFATGTIEGRVECWDPRTRNRVGLLDCALNSVTADSEINSLPTISALKFNGALTMAVGTTTGQVLLYDLRSDKPLLVKDHQYGLPIKSVHFQDSLDLILSADSRIVKMWNKNSGKIFTSLEPEHDLNDVCLYPNSGMLLTANETPKMGIYYIPVLGPAPRWCSFLDNLTEELEENPESTVYDDYKFVTKKDLENLGLTHLIGSPFLRAYMHGFFMDIRLYHKVKLMVNPFAYEEYRKDKIRQKIEETRAQRVQLKKLPKVNKELALKLIEEEEEKQKSTWKKKVKSLPNILTDDRFKVMFENPDFQVDEESEEFRLLNPLVSKISEKRKKKLRLLEQQELREKEEEEEPEGKPSDAESSESSDDEKAWVEEVRKQRRLLQQEEKVKRQERLKEDQQTVLKPQFYEIKAGEEFRSFKDSATKQKLMNKTLEDRLKIEAKNGTLSVSDTTVGSKQLTFTLKRSEQQKKQQEAEKLHRQERKRLRRSAGHLKSRHKRGRSFH | 2.67 nM | – | –
PQBP5-Δ3 (protein, Delta number assigned from the order of the constructs in the methods; initiator Met from the primer and tag omitted.) IPVLGPAPRWCSFLDNLTEELEENPESTVYDDYKFVTKKDLENLGLTHLIGSPFLRAYMHGFFMDIRLYHKVKLMVNPFAYEEYRKDKIRQKIEETRAQRVQLKKLPKVNKELALKLIEEEEEKQKSTWKKKVKSLPNILTDDRFKVMFENPDFQVDEESEEFRLLNPLVSKISEKRKKKLRLLEQQELREKEEEEEPEGKPSDAESSESSDDEKAWVEEVRKQRRLLQQEEKVKRQERLKEDQQTVLKPQFYEIKAGEEFRSFKDSATKQKLMNKTLEDRLKIEAKNGTLSVSDTTVGSKQLTFTLKRSEQQKKQQEAEKLHRQERKRLRRSAGHLKSRHKRGRSFH | – | 255 nM | –
PQBP5-Δ3 (protein, Delta number assigned from the order of the constructs in the methods; initiator Met from the primer and tag omitted. Exon 1 ends at ...LHRP, which agrees with the printed Htt reverse primer. The entry carries 21Q (18-38); one Q is removed to give the 20Q of the assayed protein name. The plasmid is called 17Q, so the repeat count is ambiguous. GST omitted.) IPVLGPAPRWCSFLDNLTEELEENPESTVYDDYKFVTKKDLENLGLTHLIGSPFLRAYMHGFFMDIRLYHKVKLMVNPFAYEEYRKDKIRQKIEETRAQRVQLKKLPKVNKELALKLIEEEEEKQKSTWKKKVKSLPNILTDDRFKVMFENPDFQVDEESEEFRLLNPLVSKISEKRKKKLRLLEQQELREKEEEEEPEGKPSDAESSESSDDEKAWVEEVRKQRRLLQQEEKVKRQERLKEDQQTVLKPQFYEIKAGEEFRSFKDSATKQKLMNKTLEDRLKIEAKNGTLSVSDTTVGSKQLTFTLKRSEQQKKQQEAEKLHRQERKRLRRSAGHLKSRHKRGRSFH | 402 nM | – | –
full-length human PQBP5 (His-tag fusion protein) (natural protein, Exon 1 ends at ...LHRP, which agrees with the printed Htt reverse primer. The entry carries 21Q (18-38); one Q is removed to give the 20Q of the assayed protein name. The plasmid is called 17Q, so the repeat count is ambiguous. GST omitted.) MQVSSLNEVKIYSLSCGKSLPEWLSDRKKRALQKKDVDVRRRIELIQDFEMPTVCTTIKVSKDGQYILATGTYKPRVRCYDTYQLSLKFERCLDSEVVTFEILSDDYSKIVFLHNDRYIEFHSQSGFYYKTRIPKFGRDFSYHYPSCDLYFVGASSEVYRLNLEQGRYLNPLQTDAAENNVCDINSVHGLFATGTIEGRVECWDPRTRNRVGLLDCALNSVTADSEINSLPTISALKFNGALTMAVGTTTGQVLLYDLRSDKPLLVKDHQYGLPIKSVHFQDSLDLILSADSRIVKMWNKNSGKIFTSLEPEHDLNDVCLYPNSGMLLTANETPKMGIYYIPVLGPAPRWCSFLDNLTEELEENPESTVYDDYKFVTKKDLENLGLTHLIGSPFLRAYMHGFFMDIRLYHKVKLMVNPFAYEEYRKDKIRQKIEETRAQRVQLKKLPKVNKELALKLIEEEEEKQKSTWKKKVKSLPNILTDDRFKVMFENPDFQVDEESEEFRLLNPLVSKISEKRKKKLRLLEQQELREKEEEEEPEGKPSDAESSESSDDEKAWVEEVRKQRRLLQQEEKVKRQERLKEDQQTVLKPQFYEIKAGEEFRSFKDSATKQKLMNKTLEDRLKIEAKNGTLSVSDTTVGSKQLTFTLKRSEQQKKQQEAEKLHRQERKRLRRSAGHLKSRHKRGRSFH | 0.0308 nM | – | –
PQBP5-Δ2 (protein, Delta number assigned from the order of the constructs in the methods; initiator Met from the primer and tag omitted.) PRTRNRVGLLDCALNSVTADSEINSLPTISALKFNGALTMAVGTTTGQVLLYDLRSDKPLLVKDHQYGLPIKSVHFQDSLDLILSADSRIVKMWNKNSGKIFTSLEPEHDLNDVCLYPNSGMLLTANETPKMGIYYIPVLGPAPRWCSFLDNLTEELEENPESTVYDDYKFVTKKDLENLGLTHLIGSPFLRAYMHGFFMDIRLYHKVKLMVNPFAYEEYRKDKIRQKIEETRAQRVQLKKLPKVNKELALKLIEEEEEKQKSTWKKKVKSLPNILTDDRFKVMFENPDFQVDEESEEFRLLNPLVSKISEKRKKKLRLLEQQELREKEEEEEPEGKPSDAESSESSDDEKAWVEEVRKQRRLLQQEEKVKRQERLKEDQQTVLKPQFYEIKAGEEFRSFKDSATKQKLMNKTLEDRLKIEAKNGTLSVSDTTVGSKQLTFTLKRSEQQKKQQEAEKLHRQERKRLRRSAGHLKSRHKRGRSFH | – | 830 nM | 183 nM
PQBP5-Δ2 (protein, Delta number assigned from the order of the constructs in the methods; initiator Met from the primer and tag omitted. Exon 1 ends at ...LHRP, which agrees with the printed Htt reverse primer. The entry carries 21Q (18-38); one Q is removed to give the 20Q of the assayed protein name. The plasmid is called 17Q, so the repeat count is ambiguous. GST omitted.) PRTRNRVGLLDCALNSVTADSEINSLPTISALKFNGALTMAVGTTTGQVLLYDLRSDKPLLVKDHQYGLPIKSVHFQDSLDLILSADSRIVKMWNKNSGKIFTSLEPEHDLNDVCLYPNSGMLLTANETPKMGIYYIPVLGPAPRWCSFLDNLTEELEENPESTVYDDYKFVTKKDLENLGLTHLIGSPFLRAYMHGFFMDIRLYHKVKLMVNPFAYEEYRKDKIRQKIEETRAQRVQLKKLPKVNKELALKLIEEEEEKQKSTWKKKVKSLPNILTDDRFKVMFENPDFQVDEESEEFRLLNPLVSKISEKRKKKLRLLEQQELREKEEEEEPEGKPSDAESSESSDDEKAWVEEVRKQRRLLQQEEKVKRQERLKEDQQTVLKPQFYEIKAGEEFRSFKDSATKQKLMNKTLEDRLKIEAKNGTLSVSDTTVGSKQLTFTLKRSEQQKKQQEAEKLHRQERKRLRRSAGHLKSRHKRGRSFH | 463 nM | – | –
PQBP5-Δ5 (protein, Delta number assigned from the order of the constructs in the methods (fifth: 1-481, lacking NUC153); tag omitted.) MQVSSLNEVKIYSLSCGKSLPEWLSDRKKRALQKKDVDVRRRIELIQDFEMPTVCTTIKVSKDGQYILATGTYKPRVRCYDTYQLSLKFERCLDSEVVTFEILSDDYSKIVFLHNDRYIEFHSQSGFYYKTRIPKFGRDFSYHYPSCDLYFVGASSEVYRLNLEQGRYLNPLQTDAAENNVCDINSVHGLFATGTIEGRVECWDPRTRNRVGLLDCALNSVTADSEINSLPTISALKFNGALTMAVGTTTGQVLLYDLRSDKPLLVKDHQYGLPIKSVHFQDSLDLILSADSRIVKMWNKNSGKIFTSLEPEHDLNDVCLYPNSGMLLTANETPKMGIYYIPVLGPAPRWCSFLDNLTEELEENPESTVYDDYKFVTKKDLENLGLTHLIGSPFLRAYMHGFFMDIRLYHKVKLMVNPFAYEEYRKDKIRQKIEETRAQRVQLKKLPKVNKELALKLIEEEEEKQKSTWKKKVKSLPNILT | – | 0.194 nM | 0.128 nM
PQBP5-Δ5 (protein, Delta number assigned from the order of the constructs in the methods (fifth: 1-481, lacking NUC153); tag omitted. Exon 1 ends at ...LHRP, which agrees with the printed Htt reverse primer. The entry carries 21Q (18-38); one Q is removed to give the 20Q of the assayed protein name. The plasmid is called 17Q, so the repeat count is ambiguous. GST omitted.) MQVSSLNEVKIYSLSCGKSLPEWLSDRKKRALQKKDVDVRRRIELIQDFEMPTVCTTIKVSKDGQYILATGTYKPRVRCYDTYQLSLKFERCLDSEVVTFEILSDDYSKIVFLHNDRYIEFHSQSGFYYKTRIPKFGRDFSYHYPSCDLYFVGASSEVYRLNLEQGRYLNPLQTDAAENNVCDINSVHGLFATGTIEGRVECWDPRTRNRVGLLDCALNSVTADSEINSLPTISALKFNGALTMAVGTTTGQVLLYDLRSDKPLLVKDHQYGLPIKSVHFQDSLDLILSADSRIVKMWNKNSGKIFTSLEPEHDLNDVCLYPNSGMLLTANETPKMGIYYIPVLGPAPRWCSFLDNLTEELEENPESTVYDDYKFVTKKDLENLGLTHLIGSPFLRAYMHGFFMDIRLYHKVKLMVNPFAYEEYRKDKIRQKIEETRAQRVQLKKLPKVNKELALKLIEEEEEKQKSTWKKKVKSLPNILT | 0.354 nM | – | –
